Target: FKBP-caspase-8 (Site-1 mutant) (human) (UniProt Q14790)

## FRB-FLIPL (wt) (from UniProt O15519 188-480)
  activity after heterodimerization (with AP21967), relative to Mature caspase-8: 20%
